# Experimental data: patent US20070224125A1 (APPLIED RESEARCH SYSTEMS ARS HOLDING N V, published 2007)
# B1: CCL5/RANTES (ligand, UniProt P13501 24-91, looked up)
# chain: SPYSSDTTPCCFAYIARPLPRAHIKEYFYTSGKCSNPAVVFVTRKNRQVCANPEKKWVREYINSLEMS
# B2: CCL3/MIP-1alpha (ligand, UniProt P10147 24-92, looked up)
# chain: SLAADTPTACCFSYTSRQIPQNFIADYFETSSQCSKPGVIFLTKRSRQVCADPSEEWVQKYVSDLELSA
# notes: also called CCL/MIP-1alpha; 125I-MIP-1alpha
# Target: T1, Bovine Serum Albumin (BSA) (bovine, UniProt P02769 25-607)
# T1 construct: Negative control
# Assay: proteins spotted on nitrocellulose filters, incubated with radiolabeled chemokine
# T1 sequence (P02769 25-607 limits assumed): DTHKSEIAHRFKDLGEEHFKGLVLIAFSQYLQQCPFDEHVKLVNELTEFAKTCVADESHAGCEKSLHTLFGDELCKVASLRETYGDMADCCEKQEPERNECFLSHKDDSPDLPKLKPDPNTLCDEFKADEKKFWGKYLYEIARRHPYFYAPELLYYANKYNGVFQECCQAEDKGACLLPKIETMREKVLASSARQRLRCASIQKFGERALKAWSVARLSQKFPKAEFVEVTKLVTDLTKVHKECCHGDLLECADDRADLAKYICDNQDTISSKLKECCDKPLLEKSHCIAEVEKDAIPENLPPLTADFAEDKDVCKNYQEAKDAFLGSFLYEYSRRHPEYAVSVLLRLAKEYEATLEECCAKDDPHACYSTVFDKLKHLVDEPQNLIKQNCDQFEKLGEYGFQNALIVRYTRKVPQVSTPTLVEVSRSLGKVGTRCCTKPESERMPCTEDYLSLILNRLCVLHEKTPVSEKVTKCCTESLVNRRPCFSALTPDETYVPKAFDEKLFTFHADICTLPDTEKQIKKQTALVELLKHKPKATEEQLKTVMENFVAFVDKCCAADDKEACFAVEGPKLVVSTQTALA
row,Binder,binding result
1,B1,no binding
2,B2,no binding
